Values quoted from earlier work as cited in article PMC7149769.

Key:
Factor X (Homo sapiens) = Factor X (Homo sapiens) (UniProt P00742)
Factor Xa (Homo sapiens) = Factor Xa (Homo sapiens) (UniProt P00742)

Kd (Factor X (Homo sapiens))	Kd (Factor Xa (Homo sapiens))	Substance
30 nM		Mac-1 (from UniProt P11215)
	1 nM	Factor Va (from UniProt P12259)
